Source: the Human Domainome abundance scans (Beltran et al. 2025)
± gives the uncertainty stated by the source.

B1: Tyrosine-protein kinase BTK, residues 215 to 273; numbered along this chain, Q06187 (parent)
chain: ELKKVVALYDYMPMNANDLQLRKGDEYFILEESNLPWWRARDKNGQEGYIPSNYVTEAE

Variants of: B1
Assay: abundance fitness (aPCA) (normalised: wild type 0, dead -1); higher = more abundant; growth selection in yeast, the domain comes from the species named
Settings: Homo sapiens
For Y54C, the abundance fitness was -0.037 ± 0.05. With S33C the abundance fitness was -0.039 ± 0.057. Variant W37L has an abundance fitness of -0.014 ± 0.032. Y27M gave an abundance fitness of -0.362 ± 0.051. For R41W, the abundance fitness was -0.19 ± 0.047. Work on E26K yielded an abundance fitness of -0.01 ± 0.056. In the case of P13N, the abundance fitness is reported as -0.275 ± 0.1. In the case of Y49V, the abundance fitness is reported as -0.018 ± 0.038. L8N showed an abundance fitness of -0.118 ± 0.077. Variant E59H has an abundance fitness of -0.054 ± 0.13. Work on G45Y yielded an abundance fitness of -0.062 ± 0.072. With T56D the abundance fitness was 0.021 ± 0.062. D18W showed an abundance fitness of -0.07 ± 0.033. With Y49R the abundance fitness was 0.04 ± 0.036. For A16S, the abundance fitness was -0.042 ± 0.031. For A58P, the abundance fitness was -0.001 ± 0.064. L35N gave an abundance fitness of -0.06 ± 0.066. G45F gave an abundance fitness of -0.173 ± 0.073. In the case of V5P, the abundance fitness is reported as -0.755 ± 0.071. In the case of K23H, the abundance fitness is reported as -0.019 ± 0.087. In the case of A16P, the abundance fitness is reported as -0.093 ± 0.043. Work on E57K yielded an abundance fitness of -0.047 ± 0.053. For A40Q, the abundance fitness was -0.758 ± 0.093. Variant G24F has an abundance fitness of -0.156 ± 0.058. For T56V, the abundance fitness was 0.014 ± 0.038. Q46A gave an abundance fitness of 0.014 ± 0.051. For W37C, the abundance fitness was 0.029 ± 0.05. In the case of Y9E, the abundance fitness is reported as 0.001 ± 0.039. In the case of A7C, the abundance fitness is reported as -0.203 ± 0.055. E1L gave an abundance fitness of -0.074 ± 0.067. With A16I the abundance fitness was -0.229 ± 0.058. With Y49K the abundance fitness was -0.056 ± 0.063. P51E gave an abundance fitness of -0.373 ± 0.047. Variant E31T has an abundance fitness of -0.04 ± 0.05. With R22W the abundance fitness was -0.099 ± 0.037. A40Y showed an abundance fitness of -0.734 ± 0.086. K4N showed an abundance fitness of -0.339 ± 0.11. V5E gave an abundance fitness of -0.708 ± 0.079. M12H showed an abundance fitness of 0.006 ± 0.091. With L21S the abundance fitness was -0.811 ± 0.057. A58N gave an abundance fitness of -0.012 ± 0.073. W38Q gave an abundance fitness of -0.019 ± 0.05. With E31C the abundance fitness was -0.034 ± 0.048. With P51L the abundance fitness was -0.056 ± 0.041. Variant P13H has an abundance fitness of -0.51 ± 0.11. Variant L30K has an abundance fitness of -0.076 ± 0.044. Variant E26D has an abundance fitness of -0.061 ± 0.078. In the case of E1Y, the abundance fitness is reported as -0.062 ± 0.16. Work on R39K yielded an abundance fitness of -0.064 ± 0.051. For S52T, the abundance fitness was -0.058 ± 0.051. Variant I50E has an abundance fitness of -0.95 ± 0.08. For M14N, the abundance fitness was 0.059 ± 0.062. With R41A the abundance fitness was -0.111 ± 0.041. For D25Y, the abundance fitness was -0.101 ± 0.059. Work on L2R yielded an abundance fitness of -0.075 ± 0.041. For K3R, the abundance fitness was -0.065 ± 0.043. With L19G the abundance fitness was -0.851 ± 0.045. A40M showed an abundance fitness of -0.334 ± 0.047. With I29V the abundance fitness was -0.002 ± 0.038. With W37K the abundance fitness was 0.027 ± 0.056. Variant W37I has an abundance fitness of -0.097 ± 0.071. With Y49F the abundance fitness was -0.033 ± 0.057. With Q20K the abundance fitness was -0.075 ± 0.075. A16W gave an abundance fitness of -0.105 ± 0.037. In the case of I29Y, the abundance fitness is reported as -1.02 ± 0.13. Work on Y54G yielded an abundance fitness of 0.037 ± 0.042. L21P gave an abundance fitness of -0.724 ± 0.082. R41G gave an abundance fitness of -0.317 ± 0.042. F28E showed an abundance fitness of 0.002 ± 0.055. For R41E, the abundance fitness was -0.305 ± 0.069. With I29G the abundance fitness was -0.847 ± 0.059. In the case of T56H, the abundance fitness is reported as 0.014 ± 0.087. R41C gave an abundance fitness of -0.027 ± 0.078. With L2Q the abundance fitness was -0.013 ± 0.089. Work on Y54L yielded an abundance fitness of -0.109 ± 0.034. E26N showed an abundance fitness of -0.098 ± 0.05. With G24T the abundance fitness was -0.395 ± 0.053. In the case of L2C, the abundance fitness is reported as -0.177 ± 0.047. With G45R the abundance fitness was -0.16 ± 0.032. Variant E26W has an abundance fitness of -0.037 ± 0.047. For K3F, the abundance fitness was -0.038 ± 0.065. Y49I showed an abundance fitness of 0.001 ± 0.061. For N53H, the abundance fitness was -0.123 ± 0.11.
